Data on three substances can be found in publication PMC5929103.

Holding throughout (assay): enzyme inhibition kinetics
Assay [1] has as its target human cationic trypsin, active (human).
Assay [2] concerns the target human anionic trypsin, active (human) (UniProt P07478).
Assay [3] has as its target human mesotrypsin, active (human) (UniProt P35030).

A word on the Ki: it is the dissociation constant of the complex between target and ligand, obtained from inhibition or displacement.

Sequence of UniProt P35030 (P35030 81-304): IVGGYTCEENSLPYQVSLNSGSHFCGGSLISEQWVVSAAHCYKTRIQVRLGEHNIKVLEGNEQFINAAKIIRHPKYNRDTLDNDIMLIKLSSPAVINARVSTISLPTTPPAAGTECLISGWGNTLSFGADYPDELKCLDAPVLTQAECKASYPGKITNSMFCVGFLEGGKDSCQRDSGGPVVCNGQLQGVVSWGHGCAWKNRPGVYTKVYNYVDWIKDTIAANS
Sequence of UniProt P07478 (P07478 24-247): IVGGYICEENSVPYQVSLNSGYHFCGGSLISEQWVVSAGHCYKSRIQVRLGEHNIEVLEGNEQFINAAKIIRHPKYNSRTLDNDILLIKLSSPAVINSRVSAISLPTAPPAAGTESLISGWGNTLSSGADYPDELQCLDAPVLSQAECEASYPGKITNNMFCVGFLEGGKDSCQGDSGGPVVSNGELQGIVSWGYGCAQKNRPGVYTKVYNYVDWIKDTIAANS

“APPI_(M17G/I18F/F34V), soluble form (designed binder)” came in with a Ki in assay [1] of 0.023 nM.
Regarding “APPI_(P13W/M17G/I18F/F34V), soluble form (designed binder)”, the Ki in assay [2] turned out to be 0.0038 nM; in assay [1], 0.019 nM; in assay [3], 0.069 nM.
As for “wild-type amyloid β-protein precursor Kunitz protease inhibitor domain (APPI) (from UniProt P05067 289-344) (domain or fragment)”, the Ki in assay [1] was 0.0041 nM.
